From the supplement of paper PMC12042874
± gives the uncertainty stated by the source.

Test: amyloid nucleation score (Sup35N fusion, yeast selection) (log enrichment); library NNK1; higher = more nucleation; inactive = no reads after selection
In short: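 The nucleation score is the log enrichment of output over input reads, calculated with DiMSum and centred on the mode score of non-aggregating sequences. Sequences with under 100 input reads were excluded. Reads came from Illumina sequencing of plasmid inserts from psi-negative yeast expressing Sup35N fused to peptides of 20 random codons, induced 24 hours with 100 μM copper sulfate and grown 7 days at 30°C without adenine and uracil.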

Row | Substance | amyloid nucleation score
1 | GPLKPFNASLVGTGAVLHGE | 0.034 ± 0.52
2 | SKESKSSEARLLIR | -1.39 ± 1.3
3 | LLPWGYD | 2.77 ± 0.15
4 | NTESLEFRSKKGGNCRAGLS | 0.495 ± 0.97
5 | FGPNVSFR | -0.638 ± 0.54
6 | IVNVSCITNVDGGSLADSAV | 2.48 ± 0.25
7 | IGSSHRNSLVCVVEDENIQI | 1.01 ± 0.5
8 | WLCTMLYVVVIRGCNVGNLE | -0.393 ± 0.65
9 | SSEIDYVFMAPREV | -0.06 ± 0.63
10 | LLVNGLMGMWPIFII | -1.03 ± 2.4
11 | NLGLR | 4.49 ± 0.077
12 | IVDPWY | 2.56 ± 0.12
13 | AVIVVV | 0.175 ± 0.39
14 | MVQNVWDVRYDEAAMTLVRH | 0.461 ± 0.61
15 | VINCITRLDVQYRKHTPFAN | -0.382 ± 0.3
16 | AKLMGCYMQRSICITRVPFL | 0.702 ± 0.51
17 | YIAMYGARTPSCVVKPG | -0.832 ± 0.55
18 | TVFMVKDRVILRFGRGLKAW | -1.09 ± 1.1
19 | SVSACPRVPMCIYGYLCWCH | -0.311 ± 0.3
20 | AALWHFNFINRSFRTVGPAG | -0.569 ± 0.38
21 | RNYLIDV | -0.668 ± 0.4
22 | QKTASILLPVRYFWCEKSWM | -0.667 ± 1.5
23 | IVCSGLCHIN | 7.08 ± 0.071
24 | SRVNDQCVLSSWR | 0.47 ± 0.5
25 | TTSYHTNGRAVRIVYPFANS | -0.096 ± 0.6

Row | Substance | amyloid nucleation score
26 | VLFIWTLF | 0.341 ± 0.26
27 | DLAWWMSCAHFMSMTRGLQR | 0.595 ± 0.36
28 | YGEHWSS | 0.645 ± 1.2
29 | PSSIWNAMFYGYNCMYLLKT | -0.392 ± 0.34
30 | ENDYITCQMSQSVQNVVVVK | 0.647 ± 0.43
31 | TLRLKWSWEADCDI | 2.49 ± 0.12
32 | SKARKIWYAWLVTPPMRQTE | 0.667 ± 0.3
33 | CCFNYKSPWSMWFNLRLSNP | 5.06 ± 0.071
34 | VGNMRYL | -0.332 ± 0.5
35 | TCNQS | inactive
36 | KFILTVPMANSATYTFACLD | inactive
37 | GFPLQSKDTARNIGTQFLEW | -0.003 ± 0.4
38 | CQISI | -2.17 ± 2.4
39 | VWLMFLSWLV | -0.639 ± 0.78
40 | GKCLIMKQRLALKSFFNFQC | inactive
41 | GAFNQSMDSCGFMFPHNMRP | 0.724 ± 1
42 | VSTILYFDFVSVLPSALIEK | 3.23 ± 0.18
43 | CVHYLYEILQGILLNYSFLL | -0.737 ± 0.4
44 | ALCYWNSTVD | -0.057 ± 0.41
45 | RRLTILSTSPWCTPLELNSF | -0.282 ± 0.37
46 | YYVKISLGGSLNNLWKRDWW | 3.54 ± 0.1
47 | LKWRV | -0.771 ± 1.1
48 | IRLLAKI | inactive
49 | NAFSYTGRYIGLPRELGVLR | 1.06 ± 0.52
50 | RGGKGPRFVYNRFISRAAGR | -0.869 ± 0.74

Row | Substance | amyloid nucleation score
51 | FNYIFRWLVMGTGSCTGS | 0.45 ± 0.29
52 | QTSSFFCSV | -2.12 ± 2.4
53 | RSSGVSVGYFRAFS | inactive
54 | MRRPVKCYGVVTL | -0.299 ± 1.1
55 | NFPFMFKCSPGNVHLVDIR | -0.535 ± 1.7
56 | APSNNFCNNGLMFRYVRPGD | 2.81 ± 0.21
57 | DSYDLY | inactive
58 | SFVWLR | 2.67 ± 0.37
59 | FLSCFDILLHGVSYNSFQYW | 0.54 ± 0.42
60 | HIGGTFVWLEFPCKWGLTED | 4.46 ± 0.069
61 | DSYILRGNSVLGGGTFSVIR | 0.062 ± 0.53
62 | LFFGSTLMDATFGYGDSDCN | 0.828 ± 0.62
63 | MFRALVCITVPILHKATNM | -0.689 ± 0.81
64 | PSHLRYAAH | -0.038 ± 0.54
65 | ICLMFLSGTIDYYLY | 0.111 ± 0.84
66 | FTVARYKGIYNFSQGRCA | -0.33 ± 1.2
67 | SSAGMTRTKNGPPC | 2.89 ± 0.082
68 | IMGHIKM | -0.366 ± 0.44
69 | MPLYLVCDFLNYGFVISVSS | 4.42 ± 0.095
70 | FEGRGFKDNATQENNSEFAS | 0.4 ± 0.46
71 | YGINNLPI | -1.23 ± 0.71
72 | FIMVCGSKGLLVALGALE | -0.752 ± 1.3
73 | DYFRYRIFKKSYHKPAVICI | -0.415 ± 0.52
74 | SYGNVWYIMYHRLKDTGWYM | 1.4 ± 0.43
75 | DMKNYVPVLLGNTMIMLWGL | 3.08 ± 0.085

Row | Substance | amyloid nucleation score
76 | FCVRWILPLDISMGDRHSSE | 0.592 ± 0.49
77 | IASSSTRFLYV | 0.813 ± 0.51
78 | MRENIWPITCSNL | 2.28 ± 0.57
79 | VRADHYFYITHIKLKMSRV | inactive
80 | TGRSTSTG | inactive
81 | GIWVGHESVVIIVDMLYMLL | 5.493 ± 0.046
82 | MFFLYCLARRVGKLMECRV | 1.28 ± 0.46
83 | CSGMMARPWIYLVGVYKISN | 2.26 ± 0.17
84 | GVRGVSKMECKYQKFIGLTG | 1.78 ± 0.61
85 | EVISPFQLSSDVGGMSRLGV | 0.73 ± 0.72
86 | GPLFYNTM | 0.159 ± 1.2
87 | SILKIALTH | -1.71 ± 1.4
88 | FDANGVCSSITSCM | -0.359 ± 0.53
89 | YGSKICSIAFCPLLHVQNHP | 6.567 ± 0.055
90 | ELLEILFCSTIVERKNHRRP | 2.11 ± 0.11
91 | ISSILFLQCLSWGGNR | 5.38 ± 0.095
92 | DVVLDYSRQTYKDPASRMYA | 1.1 ± 0.71
93 | YMEGAGRYWRGQRKLPPCIA | -0.414 ± 0.67
94 | DFRKDWYWESPASRFFTNEV | 0.44 ± 0.53
95 | WNDRSGDVSLPCS | 0.027 ± 0.61
96 | GELTIYCSVVPYVVSR | 0.415 ± 0.44
97 | ERDCPYRTMGLRCVNYRFRG | 3.64 ± 0.14
98 | NPNFDRGQRSLQLDIMVKWR | 1.97 ± 0.19
99 | HLYMDSSILRLVEYTWCFKV | 0.085 ± 0.96
100 | WLVHFDHTPNTSL | -0.069 ± 0.53

Row | Substance | amyloid nucleation score
101 | SYSIASVFWSSMSNGLGR | 0.886 ± 0.2
102 | TLGFKIVDGIRGNMLVGPGI | -0.081 ± 0.73
103 | DSINCCMMCYEK | 7.567 ± 0.071
104 | WNSVVHINSVNYCV | 6.732 ± 0.059
105 | YERVRPGAIHFRIETI | 0.146 ± 0.53
106 | ASPHWGSCNKTLRDGPRQVL | -0.677 ± 0.65
107 | GTQMVLFDY | 1.12 ± 0.58
108 | HSGGVTIQLCSKACVYSGAG | 0.754 ± 0.19
109 | LSVVSWICRFDALQGHSCVK | -0.561 ± 0.41
110 | EEPLLSDMCITVGVRFLNKS | 3.36 ± 0.22
111 | MSAVTGYECFRSLLV | -0.055 ± 0.35
112 | SWFYDGCSRPWRGIGDRRVC | -0.812 ± 0.91
113 | LLRSILTMAY | 0.605 ± 0.43
114 | VMGNTDVVSDVSWVKCQKLK | 0.328 ± 0.32
115 | ILIEETFLS | inactive
116 | GTDYVEGCCSLNFRCCCVNG | 5.117 ± 0.05
117 | RYDPMLWINLYCFLITGG | 0.334 ± 0.39
118 | SCFPLLRQFAGWLSWSRT | 2.28 ± 0.18
119 | IYRSHRMPKSTRTLV | -1.16 ± 1.9
120 | CGDGPHHVLCLSVVDICVGC | -1.04 ± 1.6
121 | VNVITCLY | -1.33 ± 1.4
122 | HVSACRNKIHLWSRTHLSGE | 0.83 ± 0.5
123 | CTIILL | 2.78 ± 0.14
124 | CSDRVKTLSFCWSPSVVFW | -0.636 ± 0.95
125 | YLISYRLTPSYASVNDCFPD | 0.203 ± 0.46

Row | Substance | amyloid nucleation score
126 | SFRCDVD | -0.217 ± 0.55
127 | FAWGGFC | -0.155 ± 0.86
128 | FGLYVYLPEGRHACVALRTV | -0.89 ± 0.88
129 | MASTMPC | -0.654 ± 1
130 | CPWTVMLHFSYDYCARGFKV | -0.505 ± 0.57
131 | VTRCVAVAFSLGYLVIKCAL | -0.243 ± 0.76
132 | KIRVDRFNIRSCDIGSDLCY | -1.07 ± 0.43
133 | LFYTCRVDQGPVWGLLTKRR | 0.344 ± 0.77
134 | GCSVAASSESNNRSQQVGLT | 1.02 ± 0.84
135 | FTNPRINMSRFSLSFCPARY | 2.1 ± 0.25
136 | VLDYGIVFNVVLLICIRTTE | 4.87 ± 0.064
137 | CSFGQIPCNLDQTGLLRARG | 1.1 ± 0.55
138 | PFCRSRHAGHSRSLQVEKFM | -0.004 ± 0.29
139 | SAFVDWSAGSSNDFFFF | -0.577 ± 0.94
140 | MIMLIWVINSLTYGLEGLTA | 0.919 ± 0.39
141 | IIIPFLSNSCEFMWL | 4.81 ± 0.076
142 | RFFRISWIFMSDSRPTRSDF | 0.793 ± 0.84
143 | SIYSRGSVLANPCSFYAEVR | inactive
144 | GRIVVTSQFMMIGRWGSPPP | 3.29 ± 0.1
145 | SPTLARSVWFRCLCTANGRE | 0.698 ± 0.93
146 | MPGNQYCSVSYLYQRSSGTV | 0.384 ± 0.45
147 | LNRRMNRCCTWLNMCADFFA | 0.865 ± 0.75
148 | SNSKK | 0.009 ± 0.25
149 | IRLNVFFNMELMRLDLLWR | 0.311 ± 0.72
150 | IIQSSTGLWFIIRKVDATYV | 0.812 ± 0.28

Row | Substance | amyloid nucleation score
151 | HYVVVKRRPMDMSGLVGWDA | 0.036 ± 0.43
152 | IWALKVWLRLTYCHICFRVV | 0.265 ± 0.58
153 | CYLCSSSF | 1.67 ± 0.24
154 | DAASHYINLCNHSAEFSKVG | 1.42 ± 0.53
155 | RLPLMNWFTAMA | 0.037 ± 0.42
156 | NNLFYEIRM | 1.92 ± 0.17
157 | CNLSNVSLLFRYELLISGSY | 0.748 ± 0.35
158 | THGGCCQGFQPTQLQSLTHQ | 0.367 ± 0.6
159 | CLVHVRVSHNWDVTMMFGVR | 0.555 ± 0.24
160 | AFKNAAGMRGMTWISSEVGA | 0.145 ± 0.42
161 | CYSKKVLHCFKTSCLTLQVT | 1.27 ± 0.42
162 | FSLRLRDSWWAHSGRLYAYK | -0.428 ± 0.56
163 | YRGIEAFCAGTNWTSPKWSR | -0.169 ± 0.3
164 | QRSRHSIFQGILRGSNSSWD | 1.12 ± 0.69
165 | PIRPWAHYGMANWVQKAF | -0.763 ± 0.52
166 | WWVGCRACLPWDASSGKLLG | 0.139 ± 0.34
167 | PWCSKQEGTRMWGMYGAPGG | 0.162 ± 0.62
168 | ARQGASLGVK | -1.11 ± 1.5
169 | MVKLSLVIMMVLNGGMANGS | 0.69 ± 0.81
170 | NGRLMVGMLHV | 0.719 ± 0.56
171 | DGNLKSR | 0.644 ± 0.78
172 | GKEYYAIPMKNDGIARVNLR | 0.875 ± 0.28
173 | YYQRTPSTDRSLWFTGWNVN | -0.424 ± 0.19
